Measured values as given in PMC2528289.

Molecular target: T1, FliI, flagellar ATPase, full-length protein released from GST-FliI by thrombin (S. typhimurium SJW1103), P26465
T1 chain: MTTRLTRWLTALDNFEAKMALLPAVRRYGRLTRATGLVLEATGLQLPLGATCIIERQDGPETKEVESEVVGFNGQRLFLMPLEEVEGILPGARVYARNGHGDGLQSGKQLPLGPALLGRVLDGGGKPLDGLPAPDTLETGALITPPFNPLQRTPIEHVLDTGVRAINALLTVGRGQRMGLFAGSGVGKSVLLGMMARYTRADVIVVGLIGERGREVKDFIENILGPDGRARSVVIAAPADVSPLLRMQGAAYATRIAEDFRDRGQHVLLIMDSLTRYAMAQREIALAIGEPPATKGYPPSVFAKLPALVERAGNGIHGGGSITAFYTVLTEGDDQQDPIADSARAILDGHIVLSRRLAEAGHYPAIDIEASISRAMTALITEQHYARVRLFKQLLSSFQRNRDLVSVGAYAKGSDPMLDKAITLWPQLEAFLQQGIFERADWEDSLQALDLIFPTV
Assay: negative-stain electron microscopy with single particle analysis
Conditions: remark: other sources report otherwise

B1: FliI, flagellar ATPase, full-length protein released from GST-FliI by thrombin, P26465 1-456 (enzyme)
chain: T1 chain
- stoichiometry N: 6
